Experiments:
[1] = system: wild-type B-domain deleted FVIII (FVIII-WT)
[2] = system: FVIII-R336Q/R562Q (FVIII-QQ)
Chain of FVIII-R336Q/R562Q (FVIII-QQ) (chain, as listed by the source R336Q R562Q): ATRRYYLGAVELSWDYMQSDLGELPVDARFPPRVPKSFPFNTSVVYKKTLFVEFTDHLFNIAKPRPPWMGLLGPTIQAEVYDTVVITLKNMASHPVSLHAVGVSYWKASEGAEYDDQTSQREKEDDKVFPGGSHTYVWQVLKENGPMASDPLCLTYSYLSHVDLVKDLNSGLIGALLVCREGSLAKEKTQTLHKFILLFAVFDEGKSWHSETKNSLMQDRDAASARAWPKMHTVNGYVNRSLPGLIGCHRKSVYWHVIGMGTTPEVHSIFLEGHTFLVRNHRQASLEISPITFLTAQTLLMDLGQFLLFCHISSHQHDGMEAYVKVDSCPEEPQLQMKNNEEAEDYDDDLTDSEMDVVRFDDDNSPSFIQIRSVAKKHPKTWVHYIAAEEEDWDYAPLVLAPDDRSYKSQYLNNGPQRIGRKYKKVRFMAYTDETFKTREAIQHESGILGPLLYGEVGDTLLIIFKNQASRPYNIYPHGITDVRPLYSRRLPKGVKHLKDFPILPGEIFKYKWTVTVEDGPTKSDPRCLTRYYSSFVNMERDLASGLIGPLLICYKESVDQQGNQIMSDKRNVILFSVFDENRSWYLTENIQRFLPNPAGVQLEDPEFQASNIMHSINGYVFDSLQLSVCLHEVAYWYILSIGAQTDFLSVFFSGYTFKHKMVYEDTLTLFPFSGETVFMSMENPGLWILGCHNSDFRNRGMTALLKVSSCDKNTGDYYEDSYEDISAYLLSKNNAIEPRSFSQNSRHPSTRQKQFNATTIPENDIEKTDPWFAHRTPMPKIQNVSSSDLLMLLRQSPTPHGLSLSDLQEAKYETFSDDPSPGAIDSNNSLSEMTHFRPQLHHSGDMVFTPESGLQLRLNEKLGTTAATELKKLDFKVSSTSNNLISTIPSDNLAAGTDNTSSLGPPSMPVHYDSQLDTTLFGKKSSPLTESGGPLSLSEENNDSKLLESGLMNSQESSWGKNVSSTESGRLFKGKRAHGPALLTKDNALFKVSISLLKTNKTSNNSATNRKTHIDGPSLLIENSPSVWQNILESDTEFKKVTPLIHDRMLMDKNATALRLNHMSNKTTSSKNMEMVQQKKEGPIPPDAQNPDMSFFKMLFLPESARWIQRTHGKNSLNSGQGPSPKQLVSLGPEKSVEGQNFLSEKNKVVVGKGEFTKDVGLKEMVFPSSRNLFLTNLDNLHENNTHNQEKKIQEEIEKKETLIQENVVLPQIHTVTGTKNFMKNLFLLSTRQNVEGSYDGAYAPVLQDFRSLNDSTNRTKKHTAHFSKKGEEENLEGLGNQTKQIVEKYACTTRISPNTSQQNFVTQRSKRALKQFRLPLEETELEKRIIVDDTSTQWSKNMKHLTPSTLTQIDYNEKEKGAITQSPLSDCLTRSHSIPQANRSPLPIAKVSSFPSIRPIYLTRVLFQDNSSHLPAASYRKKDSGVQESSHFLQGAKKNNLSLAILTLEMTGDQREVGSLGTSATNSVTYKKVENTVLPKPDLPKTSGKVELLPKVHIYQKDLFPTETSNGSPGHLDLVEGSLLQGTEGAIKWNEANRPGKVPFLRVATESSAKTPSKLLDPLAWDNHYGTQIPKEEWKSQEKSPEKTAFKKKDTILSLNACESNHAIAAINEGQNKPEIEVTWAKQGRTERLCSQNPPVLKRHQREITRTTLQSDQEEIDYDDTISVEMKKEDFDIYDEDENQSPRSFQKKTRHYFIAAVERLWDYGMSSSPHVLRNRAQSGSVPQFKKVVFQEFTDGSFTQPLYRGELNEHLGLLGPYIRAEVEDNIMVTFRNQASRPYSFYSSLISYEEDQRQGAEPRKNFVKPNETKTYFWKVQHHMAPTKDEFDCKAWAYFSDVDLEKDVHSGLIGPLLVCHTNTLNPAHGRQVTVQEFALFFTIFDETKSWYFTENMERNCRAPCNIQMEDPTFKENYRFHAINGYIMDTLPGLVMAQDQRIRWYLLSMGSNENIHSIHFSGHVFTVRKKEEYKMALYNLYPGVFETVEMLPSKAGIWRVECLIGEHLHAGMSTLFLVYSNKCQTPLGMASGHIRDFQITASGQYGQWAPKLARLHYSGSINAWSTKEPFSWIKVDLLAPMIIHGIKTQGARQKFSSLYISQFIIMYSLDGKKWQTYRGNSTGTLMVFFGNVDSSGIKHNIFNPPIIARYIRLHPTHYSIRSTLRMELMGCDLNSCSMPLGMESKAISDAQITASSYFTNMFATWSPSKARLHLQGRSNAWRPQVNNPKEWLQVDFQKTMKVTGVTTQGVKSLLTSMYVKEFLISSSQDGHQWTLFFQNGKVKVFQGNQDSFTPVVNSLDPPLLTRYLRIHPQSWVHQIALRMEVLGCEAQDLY

Chain of wild-type B-domain deleted FVIII (FVIII-WT) (chain, as listed by the source, stated change not applied): as the sequence (chain, as listed by the source R336Q R562Q) above, with Q336R, Q562R counted along it

## activated protein C (APC)
[1]
  loss of FVIII activity (intrinsic Xase assay) after 1-hour APC incubation: FVIII-WT lost approximately 75% activity after a 1-hour APC incubation
  residual FVIII activity (intrinsic Xase assay) after incubation with 6 nM APC and 100 nM protein S: FVIII-WT lost nearly all function within 15 minutes of combined APC and PS incubation
[2]
  residual FVIII activity (intrinsic Xase assay) after 1-hour APC incubation: the protein maintained >90% activity following a 1-hour APC incubation
  residual FVIII activity (intrinsic Xase assay) after incubation with 6 nM APC and 100 nM protein S: combined PS and APC incubation also accelerated FVIII-QQ loss of function, albeit to a lesser extent than FVIII-WT
FVIII-R372Q
Chain of FVIII-R372Q (chain, as listed by the source R372Q): as the sequence (chain, as listed by the source R336Q R562Q) above, with Q336R, R372Q, Q562R counted along it
  western blot of reaction products after 30-minute incubation with APC: incubating a FVIII-R372Q mutant with APC, which did not produce the A2 fragment

## thrombin
[1]
  SDS-PAGE of cleavage products after incubation with thrombin: Thrombin cleaved both proteins to yield fragments representing cleavage at R1689 (A3-C1-C2; Mr=70,000) and R740/R372 (A1, Mr=50,000 and A2, Mr=43,000), corresponding to FVIIIa
[2]
  SDS-PAGE of cleavage products after incubation with thrombin: Thrombin cleaved both proteins to yield fragments representing cleavage at R1689 (A3-C1-C2; Mr=70,000) and R740/R372 (A1, Mr=50,000 and A2, Mr=43,000), corresponding to FVIIIa

Source: patent US20220403005
